Measurements reported in patent EP0957164B1.

Molecular target: insulin (UniProt P01308)
Test: PEG precipitation assay, A14-125I-insulin tracer displaced by unlabeled insulin, BHK medium

UniProt P01308, sequence (P01308 90-110 limits assumed, chain 1 of 2): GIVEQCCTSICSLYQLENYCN
UniProt P01308, sequence (P01308 25-54 limits assumed, chain 2 of 2): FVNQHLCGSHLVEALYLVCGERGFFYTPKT

Substance | Kd
IRΔ685 (receptor) | 6.4 nM
IRΔ703 (receptor) | 4.4 nM
IGFIR(Δ459-672).1-68, 704-729.IR (receptor) | 4.4 nM

Now those with a lower Kd, led by results:

Kd | Substance
2.1 nM | IGFIR(Δ459-672).1-68IR (receptor)
1.1 nM | IRΔ673 (receptor)
